In data set [1] the test system is EGFP-GL261 glioma cells. Briefly: BrdU incorporation of glioma cells expressing shGM-CSF. In kind it is cell-based, mouse. The following applies: FIG. 10C.
The test system of data set [2] is intracranial GL261 gliomas. Briefly: Survival of mice with intracranial gliomas (Kaplan-Meier). It counts as in vivo, mouse. On the procedure: Mice were randomly assigned to receive intracranial implantation of shNeg or shRNA glioma cells and observed until becoming moribund. EGFP-GL261 glioma cells, shGM-CSF glioma cells or shNeg glioma cells were inoculated in a right striatum using a syringe with a 26-gauge needle in a stereotactic apparatus according to the coordinates (+1.5 mm AP, −1.5 mL). Mice were resuscitated using i.p. administration of atipamazole and treated with the Tolfedine 4% (4 mg/kg s.c.) analgesic. Kaplan-Meier analysis of mice implanted with shGM-CSF and shNeg glioma cells (n=10 mice per group) was performed.
Two mice having shGM-CSF-gliomas were alive 63 days post implantation.

The subject of data set [3] is EGFP-GL261 glioma cells. Briefly: MTT metabolism test of glioma cells expressing shGM-CSF. The following applies: FIG. 10D. It counts as cell-based, mouse. The source says:
To check if glioma-derived GM-CSF is responsible for recruitment of microglia/macrophages to gliomas and for tumor growth, EGFP-GL261 glioma cells stably depleted of GM-CSF were generated by over-expressing plasmids encoding specific shRNA. Silencing of GM-CSF expression at the mRNA level (FIG. 10A) and at the protein level (FIG. 10B) in two independently derived clones was confirmed by qPCR and ELISA. Two clones derived in parallel and expressing negative shRNA served as controls.
On the technique in general: Formazan colour is commonly taken as a measure of viable cells.

In a further data set the test system is EGFP-GL261 glioma. Briefly: Intracranial EGFP-GL261 glioma implantation in C57BL/6 mice. In kind it is in vivo, mouse. The method, then:
Adult C57BL/6 mice (12-16 wk) were anesthetized with an i.p. injection of ketamine (75 mg/kg) and medetomidine (1 mg/kg). EGFP-GL261 glioma cells, shGM-CSF glioma cells or shNeg glioma cells (8×10^4 cells in 1 μl of DMEM) were inoculated in a right striatum using 1-μl syringe with a 26-gauge needle in a stereotactic apparatus according to the coordinates (+1.5 mm AP, −1.5 mL). Mice were resuscitated using i.p. administration of atipamazole and […] Tolfedine 4% (4 mg/kg s.c.). At day 15th after glioma implantation, the animals were anesthetized, sacrificed and perfused with PBS or PBS and 4% paraformaldehyde in PBS. The brains were removed and minced or post-fixed for 24 h in the same fixative solution and placed in 30% sucrose in PBS at 4° C. Next, brains were frozen with dry CO2 and serial 20-μm-thick coronal sections were collected using a cryostat. Images were acquired using a Leica DM4000B microscope.
Tumor areas in coronal sections were measured using Image Pro-Plus software in an every second brain slice and tumor volumes were calculated according to the Cavalieri principle.
Staining with anti-Iba1 and anti-vWF antibodies was performed to detect microglia/macrophages and blood vessels, respectively. Sections were incubated with 0.5% H2O2 in PBS for 30 min at RT, permeabilized and blocked with 10% donkey serum with the addition of 0.3% Triton X-100 in PBS, and then incubated with the primary antibodies: anti-Iba-1 (rabbit, polyclonal, WAKO, 1:1000) or anti-vWF (rabbit, polyclonal, Abcam, 1:1000) for 24 h at 4° C. and with the secondary goat anti-rabbit biotinylated IgG for 2 hr at RT. The primary and secondary antibodies were diluted in PBS containing 0.1% Triton X-100 and 3% donkey serum. The sections were exposed to extravidin-peroxidase complex (1:200) for 1 h at RT and peroxidase activity was visualized with 0.02% 3.3′-diaminobenzidine (DAB) and 0.01% H2O2 in Tris buffer (pH 7.6). Sections were dehydrated and mounted with Histofluid (Sigma, Germany). […]

For data set [4], the system named is EGFP-GL261 glioma cells in murine brain slices. Briefly: Tumor invasion in organotypical brain slice cultures. In kind it is cell-based, mouse. As to conditions: 5d after injection; FIGS. 12A and B. On the procedure:
The organotypical brain slice cultures were obtained from 16-day-old male C57/BL6 mice (animal breeding facility, Schonwalde, Germany). The brain slices cut into 250 μm sections were transferred to a Transwell insert in a 6-well plate (Becton Dickinson, Lincoln Park, N.J., USA) and were incubated in 1 ml of DMEM (Gibco, Gaithersburg, Md., USA) supplemented with 10% FCS (Atlanta Biological, USA), 0.2 mM glutamine and antibiotics. After overnight equilibration, medium was exchanged for the cultivation medium containing 25% FCS, 50 mM sodium bicarbonate, 2% glutamine, 25% Hanks balanced salt solution, 1 μg/ml insulin (all from Gibco, Gaithersburg, Md., USA), 2.46 mg/ml glucose (Braun Melsungen AG, Germany), 0.8 μg/ml vitamin C (Sigma-Aldrich, Germany), 5 mM Tris and antibiotics. Slices were injected with 10,000 GFP-GL261 glioblastoma cells (in 0.5 μl) using a syringe mounted to a micromanipulator. […]
To investigate whether GM-CSF expression influences microglia dependent invasion or directly affects glioma invasion, an organotypic brain slice culture was used as a model. Control or GM-CSF-depleted EGFP-GL261 glioma cells were injected into murine brain slices and resulting tumor size was quantified 5d after injection by measuring the projected fluorescent area covered by the EGFP-glioma cells within the slice. […]

The next data set has as its system C6 glioma. Description: C6 glioma implantation into striatum of Wistar rats. In kind it is in vivo, rat. As to conditions: 15 days after implantation, FIG. 19C. On the procedure:
RNA was isolated from rat C6 glioma clones stably expressing shRNA against osteopontin cells and cDNA was synthesized using reverse-transcriptase and random hexamer primers. Knock down efficiency of osteopontin was confirmed by Real Time PCR (FIG. 19A). C6 glioma cells expressing control shRNA (shNeg) or glioma cells depleted of osteopontin (shSPP1) (5×10^4 cells/2.5 μl of DMEM) were implanted into the right striatum of 8-10 weeks old Wistar rats. 15 days after glioma implantation, the animals were sacrificed and intracardially perfused with 4% paraformaldehyde. The brains were removed, frozen with dry CO^2 and serial 20- or 12-μm-thick coronal sections were collected using a cryostat. To quantify the tumor size, 20 μm-thick sections were stained with toluidine blue, images were acquired using a Leica DM4000B microscope. Tumor areas were measured using ImageJ software in an every fourth brain slice and tumor volumes were calculated according to the Cavalieri principle (Gabrusiewicz et al, 2011). […] Moreover, gliomas from implanted C6-Neg were of similar sizes as WT C6 cells (n=5, 28.33±14.53 mm^3). […] Results are expressed as the means±s.d. from 2 independent experiments (U-Mann-Whitney test).

The subject of data set [5] is osteopontin (spp1) mRNA in C6 glioma cells. Description: qPCR of osteopontin silencing in stable C6 glioma clones. It counts as cell-based, rat. The following applies: stable C6 glioma cell lines; FIGS. 7A and C. The method, then:
Forward and reverse oligonucleotides were incubated in 0.1 M NaCl for 3 min at 94° C., followed by slow cooling to 37° C. for 1 h. The annealed DNA was ligated with pSilencer 2.0-U6 (Ambion, Germany) at BamHI and HindIII sites. After transformation into E. coli, plasmids were amplified, isolated and the sequences were verified by sequencing. The pSilencer-spp1, pSilencer-mfg8 pSilencer-GM-CSF and pSilencer 2.0-U6 Negative Control (Ambion) vectors were purified with Qiagen Plasmid Maxi Kit and 1.6 μg of each DNA was transfected into cells using 2 μl Lipofectamine-2000 (Invitrogen, UK). One day after transfection, hygromycin B (200 μg/ml) was added. Resistant clones were picked after 2 weeks and analysed for expression of appropriate mRNA by qRT-PCR.
RNA was isolated with RNeasy Mini Kit (Qiagen). First-strand cDNA was synthesized from 2 μg of total RNA (DNase-treated) in a 20 μl reverse transcriptase reaction mixture. […] The expression of Osteopontin, and lactadherin in C6 rat glioma cells and primary astrocytes was evaluated using qPCR. The expression of GM-CSF in GL261 glioma cells and primary astrocytes was evaluated using qPCR. […]
Reaction volume (20 μl) consisted of cDNA equivalent to 50 ng RNA, 1×SYBR Green PCR master mix (Applied Biosystems) and 0.9 μM of each primer. […] Relative quantification of gene expression was determined using the comparative CT method. […]

The subject of the next data set is microglia cells. Description: qPCR of GCM-induced genes in microglia exposed to GCM of shRNA-expressing C6 glioma cells. In kind it is cell-based, rat. The following applies: FIG. 7D. The method, then: Total RNA (2 μg) isolated from microglia cultures untreated or treated for 6 h with LPS or G-CM was used as a template to generate cDNA. As endogenous control 18S (Hs99999901_s1) rRNA was applied. Gene expression quantification was performed using the Applied Biosystem TaqMan® The real time amplifications were performed in duplicates in a 20 μl reaction volume containing 2×SYBR PCR MasterMix and a set of primers designed using PRIMER EXPRESS software for the following genes: iNOS, COX-2, II1beta, TNF alpha, MMP-2, MMP-9, MMP-14, Arg1, Id1 and c-Myc. The amount of target mRNA was first normalized to the 18S RNA expression level and then to a control. Data were analysed by the Relative Quantification (^ΔΔCt) method using 7500 System SDS software (Applied Biosystems). The expression of each product was normalized to 18S rRNA and is shown as the ratio of the target gene to 18S gene expression, calculated by 2^−ΔΔCt.
To investigate the role of identified proteins in GCM-induced activation of microglia cells, stable C6 glioma cell lines expressing shRNAs specific to osteopontin (shSPP1), or a control, negative shRNA (shNeg) were generated. Silencing efficiency was approximately 98.5% (FIGS. 7A and C). Silencing of […] inhibited GCM-induced expression c-Myc and smad7 in microglia cells (FIG. 7B). […]
Background: In qPCR the cycle at which signal appears reflects the starting amount.

The test system of the next data set is C6 glioma cells. Description: Matrigel matrix invasion of C6 glioma cells in presence of microglia. It counts as cell-based, rat. As to conditions: laser scanning cytometry; FIG. 7E. The method, then: The invasion assay was performed as described (Wesolowska et al. 2008, Kwiatkowska et al. 2011). Briefly, 24-well tissue culture inserts (12 μm pore size Transwell, Corning, N.Y., USA) were coated with the Growth Factor Reduced Matrigel™ Matrix (BD Biosciences, San Diego. Calif., USA). 100 μl of the Matrigel™ Matrix (1 mg/ml) diluted in distilled water, was dried under sterile conditions (37° C.) for 5-6 hours and reconstituted for 30 minutes in 200 μl of culture medium. C6 glioma cells (1.5×10^4/insert) were seeded on Matrigel-coated membrane in the serum-reduced medium (2% FBS) and exposed to microglia or left untreated. After 48 h cells were fixed and cell nuclei stained with DAPI. The membranes from Transwell® inserts were cut out and the total number of cells that migrated through the Matrigel was determined using Laser Scanning Cytometry (LSC, CompuCyte). All experiments were performed in triplicate. The data from three independent experiments were pooled and expressed as the average number of cells±S.D.
To investigate the role of identified proteins in GCM-induced activation of microglia cells, stable C6 glioma cell lines expressing shRNAs specific to osteopontin (shSPP1), or a control, negative shRNA (shNeg) were generated. Silencing efficiency was approximately 98.5% (FIGS. 7A and C). […]

This is an account of results in patent US9453050B2, “Compositions for treating glioma” (GLIA SP Z.O.O., priority 2011, dated 2016).

B1: shGM-CSF: shRNA to mouse GM-CSF, oligonucleotides SEQ ID NO: 23 and 24, stably expressed in EGFP-GL261 glioma cells (nucleic acid)
chain 1: GATCCCGGAAACGGACTGTGAAACATTCAAGAGATGTTTCACAGTCCGTTTCCGGTTTTTTGGAAA
chain 2: AGCTTTTCCAAAAAACCGGAAACGGACTGTGAAACATCTCTTGAATGTTTCACAGTCCGTTTCCGG
Turning to B1, the “proliferation of glioma cells (BrdU incorporation)” value in the data set on EGFP-GL261 glioma cells [1] is given as “did not affect”. Besides, the “mice alive 63 days post implantation” value in data set [2] (63 days post implantation) was “Two”. In addition, in [2] (n=10 mice per group, FIG. 16), the survival of mice result is “significant survival benefit”. Also, in the data set with EGFP-GL261 glioma cells [3], the “survival of glioma cells (MTT metabolism)” value is listed as “did not affect”. In addition, the “number of microglia/macrophages (anti-Iba-1 staining)” value with EGFP-GL261 glioma (vs control gliomas (shNeg), FIGS. 11A and B) is on record as “reduced number”. Moreover, the “formation of tumor vessels (anti-vWF staining)” value in the data set on EGFP-GL261 glioma (vs controls, FIG. 11C) was “reduced formation”. Also, in the data set on EGFP-GL261 glioma (vs shNeg glioma cells, day 15, FIG. 11D-E), the “reduction of tumor size” value was determined as 65%. Also, in data set [4], the “average tumor size smaller than controls (fluorescent area)” value came to 58%.

B2: shSPP1: shRNA specific to rat osteopontin, oligonucleotides SEQ ID NO: 21 and 22, stably expressed in C6 glioma cells (nucleic acid)
chain 1: GATCCAGCTAGTCCTAGACCCTAATTCAAGAGATTAGGGTCTAGGACTAGCTTGTTTTTTGGAAA
chain 2: AGCTTTTCCAAAAAACAAGCTAGTCCTAGACCCTAATCTCTTGAATTAGGGTCTAGGACTAGCTG
modifications: the letters are possibly those of the target site
Turning to B2, the “tumor volume (mean value)” value with C6 glioma worked out at 6.03 mm^3. Further, the “reduction in tumor volumes” value in the data set on C6 glioma (vs C6-Neg) came to 88%. Also, the Silencing efficiency entry in data set [5] was “approximately 98.5%”. Further, the “GCM-induced expression arg-1 and smad7 in microglia cells” value with microglia cells was “inhibited”. The “microglia-dependent invasion of glioma cells through Matrigel” value with C6 glioma cells was “strongly reduces”.
